Measurements: the supplement of paper PMC9732359
± gives the uncertainty stated by the source.

Assay: protein stability index of a GFP-peptide fusion (yeast GPS) (PSI 1-4); higher = more stable; sorted into four equal gates, so the index is relative within each strain
How it was run: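 Plasmids isolated from each sorting gate were PCR-amplified and Illumina-sequenced, and barcodes assigned the reads to strains. The gates, four of equal size, were set by GFP/Cherry fluorescence ratio on mid-log cultures in leucine-free medium. These cultures were yeast carrying a pooled library of tiled 17-residue yeast protein peptides fused downstream of GFP on a plasmid that also expresses Cherry. The protein stability index is the sum of every gate's read frequency times its gate number.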

| Sequence | protein stability index (doa10∆) | protein stability index (pdr5∆) | protein stability index (san1∆) | protein stability index (ubr1∆) |
| --- | --- | --- | --- | --- |
| QSEDLSHAVEFFMSERS [YML103C/NUP188] | 3.29 ± 0.077 | 3.37 ± 0.089 | 3.25 ± 0.066 | 3.18 ± 0.059 |
| AAGAGAAAGAAMIDAGA [FAS2] | 2.84 ± 0.15 | 2.98 ± 0.12 | – | 2.99 ± 0.12 |
| KDKLREFIPHSTEYMMQ [RPN6] | 3.46 ± 0.11 | 3.22 ± 0.11 | 2.83 ± 0.075 | 2.63 ± 0.087 |
| SLISTRNDSTVNDSVIS [BRN1] | 2.6 ± 0.081 | 2.81 ± 0.077 | 2.72 ± 0.06 | 2.67 ± 0.059 |
| ANVVDITNDWEQPCVDI [YJR042W/NUP85] | 3.3 ± 0.071 | 3.41 ± 0.062 | 3.23 ± 0.051 | 3.12 ± 0.06 |
| NINSTDKSIDTSSLQLY [YML103C/NUP188] | 2.98 ± 0.099 | 2.67 ± 0.14 | 3.11 ± 0.049 | 3.25 ± 0.07 |
| GNIKDLPENIILTSLMR [CSN9] | 2.69 ± 0.1 | 2.93 ± 0.075 | 2.43 ± 0.14 | 3.03 ± 0.1 |
| QHDSSANEDEEEQLDAL [CSN12] | 3.55 ± 0.25 | 2.75 ± 0.21 | – | 3 ± 0.17 |
| DDEDDEHNPTIVGGLYY [AAR2] | 3.22 ± 0.12 | 3.14 ± 0.079 | 3.17 ± 0.064 | 3.4 ± 0.1 |
| QAPTTGFSFGSQLGGNK [YJL041W/NSP1] | 3.02 ± 0.051 | 3.01 ± 0.054 | 3.37 ± 0.045 | 3.17 ± 0.036 |
| NIVQVFKKAAPSPISHV [RPB2] | 2.2 ± 0.11 | 2.33 ± 0.071 | 2.16 ± 0.075 | 2.09 ± 0.043 |
| VLEERERGQKVKNVKNS [ARP9] | 2.71 ± 0.19 | 2.25 ± 0.078 | 2.71 ± 0.12 | 1.19 ± 0.074 |
| SSLLSRLISSKMPGGFT [FAS2] | 2.51 ± 0.069 | 2.41 ± 0.08 | 2.17 ± 0.094 | 2.89 ± 0.064 |
| YDPSIGIFGMDFYVVMN [RPL11A] | 2.26 ± 0.05 | 2.24 ± 0.052 | 2.31 ± 0.055 | 2.55 ± 0.037 |
| EKESDDGLLEYLEDIIG [SMC4] | 3.47 ± 0.091 | 3.31 ± 0.075 | 3.15 ± 0.079 | 3.54 ± 0.1 |
| MSGFSLSEYLTKFQTTD [YCS4] | – | – | – | 2.9 ± 0.14 |
| TSHYQNYHPNASITPYK [RPN4] | 2.84 ± 0.081 | 3.11 ± 0.074 | 2.94 ± 0.055 | 2.89 ± 0.063 |
| NENDKIYLLFQSSGKLK [YDL116W/NUP84] | 2.43 ± 0.049 | 2.5 ± 0.049 | 2.44 ± 0.048 | 2.72 ± 0.034 |
| AVAASSTKTGTPSDLSE [POP1] | 3.3 ± 0.084 | 3.26 ± 0.077 | 3.41 ± 0.045 | 3.33 ± 0.035 |
| LALEIIVRPAKGVATTR [RRP46] | 2.09 ± 0.058 | 2.18 ± 0.065 | 1.86 ± 0.078 | 2.25 ± 0.051 |
| QIDYKLESFQAVYNKLT [RPS7A] | 2.26 ± 0.043 | 2.4 ± 0.051 | 2.41 ± 0.063 | 2.85 ± 0.037 |
| EKTFLHLPCTIEAEEAE [RPN8] | 1.56 ± 0.078 | 2.05 ± 0.071 | 2.48 ± 0.12 | 2.48 ± 0.07 |
| VSKKWAAAGVCEKWAAS [RPL14B] | 2.64 ± 0.077 | 3.1 ± 0.14 | 2.73 ± 0.084 | 2.51 ± 0.066 |
| EFSEHTFVERLPNETIN [DIS3] | 3.34 ± 0.16 | 2.47 ± 0.18 | 3.36 ± 0.11 | 3.23 ± 0.12 |
| LRFGEGASGEERLMSRP [PUP2] | 3.52 ± 0.15 | 3.36 ± 0.12 | 3.21 ± 0.1 | 3.23 ± 0.065 |
| MNMFGGGMGGGMGGGMP [SRP54] | 1.38 ± 0.055 | 2.43 ± 0.21 | 1.69 ± 0.17 | 1.53 ± 0.18 |

| Sequence | protein stability index (doa10∆) | protein stability index (pdr5∆) | protein stability index (san1∆) | protein stability index (ubr1∆) |
| --- | --- | --- | --- | --- |
| AHVNKVTEETTKQIQSV [SIR4] | 2.81 ± 0.095 | 2.89 ± 0.078 | 2.98 ± 0.041 | 2.53 ± 0.061 |
| NVAVDIINFGEIEQNTE [RPN10] | 3.23 ± 0.092 | 3.39 ± 0.075 | 3.27 ± 0.059 | 3.14 ± 0.066 |
| YLEESFTNLGIIVQYLT [RGR1] | 2.17 ± 0.2 | 2.49 ± 0.29 | 2.16 ± 0.19 | 2.8 ± 0.09 |
| DPNLSFESSSSLPFLLR [SSN2] | 3.07 ± 0.16 | 3.19 ± 0.13 | 2.94 ± 0.1 | 2.82 ± 0.13 |
| DVHLLESKVYHKLRNLA [RPN6] | 1.95 ± 0.069 | 2.33 ± 0.086 | 2.17 ± 0.14 | 2.13 ± 0.11 |
| AHEIIKREEKAMTIYWD [CDC53] | 2.03 ± 0.087 | 2.18 ± 0.064 | – | 2.2 ± 0.05 |
| GMTPCTVSPDFVAATTN [FAS1] | 1.83 ± 0.076 | 1.98 ± 0.054 | 1.86 ± 0.12 | 1.99 ± 0.07 |
| AVVQTVKGLLNTYKRLV [YJL039C/NUP192] | 1.8 ± 0.11 | 2.37 ± 0.085 | 1.92 ± 0.14 | 2.45 ± 0.083 |
| VLEKYEVIGYIAAGTYG [SSN3] | 1.34 ± 0.088 | 1.55 ± 0.14 | – | 1.28 ± 0.075 |
| IGGMRVDENGDPIWQHQ [RET1] | 3.13 ± 0.2 | 3.38 ± 0.19 | 2.88 ± 0.26 | 3.42 ± 0.092 |
| VEVCLADLQGSEDHSFR [RPS1A] | 3.44 ± 0.18 | 3.27 ± 0.11 | 3.21 ± 0.17 | 3.25 ± 0.19 |
| THFLLNIYDQLRNKLIE [RRP6] | 2.62 ± 0.044 | 2.69 ± 0.062 | 2.38 ± 0.051 | 2.8 ± 0.033 |
| GITAVHVKIRATGGTRT [RPS14B] | 1.47 ± 0.052 | 1.61 ± 0.041 | 1.57 ± 0.11 | 1.24 ± 0.047 |
| IWLRKTSQMDLARDTPS [RRP4] | 1.61 ± 0.041 | 1.98 ± 0.051 | 1.54 ± 0.097 | 1.5 ± 0.044 |
| LEWLENPSNTPDKDYLL [FAS1] | 3.16 ± 0.11 | 3.21 ± 0.088 | 3.27 ± 0.071 | 3.29 ± 0.11 |
| TQVYKLGLAKSVHHARV [RPS9A] | 1.94 ± 0.089 | 1.48 ± 0.053 | 1.55 ± 0.14 | 1.24 ± 0.066 |
| NMEKEKDRIIDERTKEF [YIL149C/MLP2] | 3.11 ± 0.078 | 2.93 ± 0.11 | 3.1 ± 0.074 | 3.16 ± 0.058 |
| VVVIDGKGHLVGRLASV [RPL16A] | 1.66 ± 0.065 | 1.64 ± 0.054 | 1.71 ± 0.1 | 1.97 ± 0.052 |
| QIKEIKEVIELPVKHPE [RPT6] | 2.98 ± 0.074 | 3.13 ± 0.088 | 3.27 ± 0.078 | 3.2 ± 0.075 |
| SVIVDSKVTVPPSKHST [ESC2] | 2.75 ± 0.11 | 2.93 ± 0.089 | 2.72 ± 0.092 | 2.81 ± 0.049 |
| DRREKAERTMSKKETKL [SMC2] | 3.31 ± 0.13 | 3.36 ± 0.092 | 3.19 ± 0.12 | 3.39 ± 0.099 |
| KKASEISVSSRSDREYP [SRP14] | 3.19 ± 0.096 | 3.1 ± 0.12 | 2.99 ± 0.1 | 2.87 ± 0.082 |
| QEGLAKFGACVAQGIMN [RPN2] | 1.79 ± 0.058 | 1.75 ± 0.042 | 1.88 ± 0.14 | 1.58 ± 0.051 |
| DAIWSLVFQLAKNFSAQ [SRB8] | 2.08 ± 0.049 | 2.56 ± 0.053 | 2.4 ± 0.054 | 2.61 ± 0.041 |
| KLSDSKTSNIESVPIYS [BRR2] | 2.5 ± 0.054 | 2.64 ± 0.062 | 2.33 ± 0.042 | 2.6 ± 0.054 |
